Results published in EP1736482A1 (INSERM (Institut National de la Santé et de la Recherche …, dated 2006).

Target: T1, recombinant human 4-1BB-Fc chimera (R&D Systems) (human, UniProt Q07011 24-186)
T1 construct: Bought; Covalently coupled to a CM5 chip at 500 resonance units; also called 4-IBB-Fc; recombinant 4-1BB; Fc part of the bought chimera not given, not described
Test: SPR (BIAcore 2000), 4-1BB-Fc coupled to CM5 chip, ligand in flow, 25°C

Kd: 55.2 nM
fold lower association rate (kon) against WT AviTag-4-1BBL: 30 fold
koff: 0.00037 s⁻¹
kon: 6700 M⁻¹ s⁻¹
B1: FLAG-4-1BBL (Alexis), FLAG peptide coupled to the TNF homology domain of human 4-1BBL through an undefined 11 aa linker (ligand, UniProt P41273 93-254, looked up)
chain: AQLVAQNVLLIDGPLSWYSDPGLAGVSLTGGLSYKEDTKELVVAKAGVYYVFFQLELRRVVAGEGSGSVSLALHLQPLRSAAGAAALALTVDLPPASSEARNSAFGFQGRLLHLSAGQRLGVHLHTEARARHAWQLTQGATVLGLFRVTPEIPAGLPSPRSE
notes: domain: TNF homology domain (THD); Bought from Alexis, produced in HEK293; also called FLAG-tagged 4-1BBL; soluble FLAG-4-1BBL; not shown: FLAG peptide (8aa); undefined 11aa linker
